# Source: article PMC5689134, “Detailed Analysis of Insulin Absorption Variability and the Tissue Response to Continuous Subcutaneous Insulin Infusion Catheter Implantation in Swine” (Diabetes Technology & Therapeutics, 2017)
# Experiment: Insulin lispro absorption PK after 5-U bolus through CSII catheters in swine
# Type: in vivo
# Details: for tmax (time-to-peak) / AUC60 (0-60 min after bolus) / Cmax (maximal plasma insulin level) / AUC (0-160 min after bolus, baseline subtracted): mean ± SD; for AUC60 (0-60 min after bolus) / Cmax (maximal plasma insulin level) / AUC (0-160 min after bolus, baseline subtracted): plasma ELISA
# Description: We performed an observational study in six swine to evaluate the PK of insulin lispro (U-100 Humalog; Eli Lilly) infused through CSII catheters implanted for 5 days. Six commercial CSII catheters (CCs) and six investigational CSII catheters (ICs) were inserted into the subcutaneous tissue of each swine. Lispro insulin and saline were infused through the CCs and ICs for 5 days using battery powered insulin pumps and the same basal/bolus pattern of delivery. Additional CCs and ICs were filled with saline and capped (Supplementary Table S1; Supplementary Data are available online at www.liebertpub.com/dia). Insulin PK (Cmax, tmax, AUC, AUC60) following a 5-U bolus were evaluated on days 1, 3, and 5. The tissue surrounding the 72 CSII was excised and pathologically analyzed to elucidate the relationship between the PK of insulin absorption and the inflammatory tissue response to trauma and the CSII cannula.
# The study was performed in six nondiabetic ambulatory female swine (68.5 ± 3.6 kg). The protocol was approved by the Institutional Animal Care & Use Committee of Thomas Jefferson University. […] The CVC ports were flushed every 1–3 days using a Huber needle and low-dose heparin solution. One week later, each swine was given general anesthesia and six CCs (Inset™; UnoMedical, Denmark) and six ICs were inserted into the subcutaneous tissue of the abdomen using an aseptic technique according to the manufacturer's instructions. In total, 72 CSII were implanted in six swine.
# Two CCs and two ICs were connected to insulin pumps (OneTouch Ping; Animas Corporation, West Chester, PA) containing rapid acting lispro insulin. Two CCs and two ICs were connected to insulin pumps containing saline solution. […] CSII were secured with Tegaderm™ adhesive bandages and the eight insulin pumps were secured within the pockets of a custom vest (Lomir Biomedical, Inc., Supplementary Fig. S2). Insulin lispro was continuously infused through the four CSII catheters at a low basal rate (0.2 U/h/catheter = 0.8 U/h). Insulin and saline were infused using the same basal/bolus pattern throughout the 5-day study.
# PK studies were performed on days 1, 3, and 5 after CSII insertion. On day 1, animals recovered from general anesthesia for ∼2 h before starting the PK study. Blood was sampled from a CVC every 10 min for ∼2 h, followed by every 15 min for 1 h before administering the second bolus and repeating the sampling schedule. When blood sample acquisition from a CVC was not possible, samples were obtained from the alternate CVC or occasionally omitted. The swine were able to stand up, lie down, and consume food (apples, biscuits) and water during the PK study. The concentration of blood glucose (BG) was measured in duplicate using the YSI analyzer. Samples were centrifuged to plasma and stored at −80°C for subsequent insulin assay. A stable baseline was established for ∼30 min (three to five BG values).
# We then infused a 5-U bolus of insulin into a CC or an IC in a randomized order. The concentration of BG was maintained between 100 and 160 mg/dL by adjusting an intravenous infusion of 20% dextrose every 5–10 min for 3 h. A second baseline was then established for ∼30 min to ensure that BG levels have returned to baseline values after the morning insulin bolus, followed by a 5-U bolus of insulin infused into the alternate CSII catheter. The afternoon PK study ended ∼3 h later. Thus, two PK studies were performed on days 1, 3, and 5 in the same swine using the same CC and IC each day.
# The concentration of lispro insulin was measured in plasma samples by PreClinOmics, Inc. (Indianapolis, IN) using a porcine insulin ELISA and an Iso-insulin ELISA (Mercodia AB, Uppsala, Sweden). The lispro insulin concentration was calculated by subtracting the porcine insulin from the total insulin concentration. […]
# [1] = day 5, 5-U bolus via CC, Mean±SD of swine 2-6 (Table S4), SD
# [2] = day 5, 5-U bolus via CC, individual animal: swine 2
# [3] = day 5, 5-U bolus via CC, individual animal: swine 3
# [4] = day 5, 5-U bolus via CC, individual animal: swine 4
# [5] = day 5, 5-U bolus via CC, individual animal: swine 5
# [6] = day 5, 5-U bolus via CC, individual animal: swine 6
# [7] = day 5, 5-U bolus via IC (pump occlusion alarm during bolus), individual animal: swine 3
# [8] = day 5, 5-U bolus via IC (pump occlusion alarm during bolus), individual animal: swine 4
# [9] = day 5, 5-U bolus via IC (pump occlusion alarm during bolus), individual animal: swine 5
# [10] = day 5, 5-U bolus via IC, Mean±SD of swine 1-6 (Table S4), SD
# [11] = day 5, 5-U bolus via IC, individual animal: swine 1
# [12] = day 5, 5-U bolus via IC, individual animal: swine 2
# [13] = day 5, 5-U bolus via IC, individual animal: swine 6
# [14] = swine, 5-U s.c. bolus via CC, day 1, n = 5, SD
# [15] = swine, 5-U s.c. bolus via CC, day 3, n = 5, SD
# [16] = swine, 5-U s.c. bolus via CC, day 5, n = 5, SD
# [17] = swine, 5-U s.c. bolus via IC, day 1, n = 6, SD
# [18] = swine, 5-U s.c. bolus via IC, day 3, n = 6, SD
# [19] = swine, 5-U s.c. bolus via IC, day 5, n = 6, SD
substance,measurement,setting,value
insulin lispro,Cmax,[1],114.66±30 mUL
same,tmax,[1],12.00 ± 4 min
same,Cmax,[2],113.43 mUL
same,tmax,[2],10 min
same,AUC,[3],119.45 mULh
same,Cmax,[3],116.16 mUL
same,tmax,[3],20 min
same,AUC,[4],57.25 mULh
same,Cmax,[4],156.62 mUL
same,tmax,[4],10 min
same,AUC,[5],48.26 mULh
same,Cmax,[5],115.52 mUL
same,tmax,[5],10 min
same,AUC,[6],54.47 mULh
same,Cmax,[6],71.56 mUL
same,tmax,[6],10 min
same,AUC,[7],54.83 mULh
same,Cmax,[7],85.06 mUL
same,tmax,[7],30 min
same,AUC,[8],100.49 mULh
same,Cmax,[8],269.32 mUL
same,tmax,[8],20 min
same,AUC,[9],57.08 mULh
same,Cmax,[9],131.09 mUL
same,tmax,[9],10 min
same,AUC,[10],40.96±38 mULh
same,Cmax,[10],105.08±88 mUL
same,tmax,[10],33.33 ± 19 min
same,AUC,[11],28.30 mULh
same,Cmax,[11],68.17 mUL
same,tmax,[11],60 min
same,AUC,[12],1.77 mULh
same,Cmax,[12],47.10 mUL
same,tmax,[12],50 min
same,AUC,[13],3.27 mULh
same,Cmax,[13],29.76 mUL
same,tmax,[13],30 min
same,"Insulin absorption, range between animals","swine, 5-U bolus via IC, day 3, range over six ICs",9–132 mU/L*h
same,tmax (time-to-peak),[14],35.0 ± 17.3 min
same,AUC60 (0-60 min after bolus),[14],50.9 ± 12.9 mU/L·h
same,Cmax (maximal plasma insulin level),[14],90.7 ± 26.8 mU/L
same,tmax (time-to-peak),[15],20.0 ± 12.2 min
same,AUC60 (0-60 min after bolus),[15],47.0 ± 25.6 mU/L·h
same,"AUC (0-160 min after bolus, baseline subtracted)",[15],63.1 ± 22.8 mU/L*h
same,Cmax (maximal plasma insulin level),[15],73.9 ± 41.0 mU/L
same,AUC60 (0-60 min after bolus),[16],54.9 ± 20.8 mU/L·h
same,"AUC (0-160 min after bolus, baseline subtracted)",[16],71.1 ± 29.4 mU/L*h
same,Cmax (maximal plasma insulin level),[16],114.7 ± 30.1 mU/L
same,tmax (time-to-peak),[17],43.3 ± 28.8 min
same,AUC60 (0-60 min after bolus),[17],44.3 ± 23.2 mU/L·h
same,Cmax (maximal plasma insulin level),[17],120.0 ± 59.3 mU/L
same,tmax (time-to-peak),[18],20.0 ± 6.3 min
same,AUC60 (0-60 min after bolus),[18],42.7 ± 40.0 mU/L·h
same,"AUC (0-160 min after bolus, baseline subtracted)",[18],63.1 ± 51.8 mU/L*h
same,Cmax (maximal plasma insulin level),[18],115.0 ± 86.2 mU/L
same,AUC60 (0-60 min after bolus),[19],29.0 ± 31.3 mU/L·h
same,"AUC (0-160 min after bolus, baseline subtracted)",[19],40.1 ± 37.6 mU/L*h
same,Cmax (maximal plasma insulin level),[19],105.1 ± 87.7 mU/L
same,"AUC (0-160 min after bolus, baseline subtracted)","swine, 5-U s.c. bolus via commercial CSII catheter (CC), day 1 of wear-time, n = 5 (AUC of swine 6 not calculable), SD",82.7 ± 37.6 mU/L*h
same,"AUC (0-160 min after bolus, baseline subtracted)","swine, 5-U s.c. bolus via investigational CSII catheter (IC), day 1, n = 6, SD",68.5 ± 36.0 mU/L*h
